Measured values taken from US20190142971A1, “FORMULATION AND DELIVERY OF MODIFIED NUCLEOSIDE, NUCLEOTIDE, AND NUCLEIC ACID COMPOSITIONS” (ModernaTX, Inc., priority 2013, published 2019).

Columns and labels:
Assay type in all cases: in vivo
mice = experiment: Example 18: time course LNP IV in mice, serum EPO/G-CSF ELISA (Table 35); conditions: for protein expression detectable out to: mice IV; for EPO / G-CSF Serum Concentration: mice, LNP IV
Description: Formulations, listed in Table 33, were characterized by particle size, zeta potential, and encapsulation.
LNP formulations, shown in Table 33 (above), were administered to mice (n=5) intravenously (IV) at a single modified mRNA dose of 0.5, 0.05 or 0.005 mg/kg. The mice were bled at 8 hours, 24 hours, 72 hours and 6 days after they were administered with G-CSF or EPO modified mRNA formulations to determine protein expression using ELISA.

[1] = test system: non-human primates (cynomolgus monkey); experiment: Example 22: LNP IV in non-human primates, serum G-CSF/EPO ELISA (Tables 38, 39)
Description: LNP formulations, shown in Table 33 (above), were administered to non-human primates (NHP) (cynomolgus monkey) (n=2) as intravenous injection (IV). The NHP were administered a single modified mRNA IV dose of 0.5 mg/kg, 0.05 mg/kg or 0.005 mg/kg of G-CSF or EPO in a dose volume of 0.5 mL/kg. The NHPs were bled before dosing with the modified mRNA LNP formulations to determine protein expression in the serum and a baseline complete blood count. After administration with the G-CSF modified mRNA formulation the NHP were bled at 8, 24, 48 and 72 hours to determined protein expression. After administration with the EPO modified mRNA formulation the NHP were bled at 8, 24, 48, 72 hours and 7 days to determined protein expression.
Samples collected from the NHPs after they were administered with G-CSF or EPO modified mRNA formulations were analyzed by ELISA to determine protein expression. Neutrophil and reticulocyte count was also determined pre-dose, 24 hours, 3 days, 7 days, 14 days and 18 days after administration of the modified G-CSF or EPO formulation.

[2] = test system: non-human primates (cynomolgus monkey); experiment: Example 22: NHP serum chemistry ALT and AST (Tables 45, 46); conditions: 0.005 mg/kg

B1: EPO: modified mRNA encoding human erythropoietin, SEQ ID NO: 7, Cap1, fully modified with 5-methylcytosine and pseudouridine; LNP NPA-060-1 in Examples 17-22 (nucleic acid)
chain: GGGAAAUAAGAGAGAAAAGAAGAGUAAGAAGAAAUAUAAGAGCCACCAUGGGAGUGCACGAGUGUCCCGCGUGGUUGUGGUUGCUGCUGUCGCUCUUGAGCCUCCCACUGGGACUGCCUGUGCUGGGGGCACCACCCAGAUUGAUCUGCGACUCACGGGUACUUGAGAGGUACCUUCUUGAAGCCAAAGAAGCCGAAAACAUCACAACCGGAUGCGCCGAGCACUGCUCCCUCAAUGAGAACAUUACUGUACCGGAUACAAAGGUCAAUUUCUAUGCAUGGAAGAGAAUGGAAGUAGGACAGCAGGCCGUCGAAGUGUGGCAGGGGCUCGCGCUUUUGUCGGAGGCGGUGUUGCGGGGUCAGGCCCUCCUCGUCAACUCAUCACAGCCGUGGGAGCCCCUCCAACUUCAUGUCGAUAAAGCGGUGUCGGGGCUCCGCAGCUUGACGACGUUGCUUCGGGCUCUGGGCGCACAAAAGGAGGCUAUUUCGCCGCCUGACGCGGCCUCCGCGGCACCCCUCCGAACGAUCACCGCGGACACGUUUAGGAAGCUUUUUAGAGUGUACAGCAAUUUCCUCCGCGGAAAGCUGAAAUUGUAUACUGGUGAAGCGUGUAGGACAGGGGAUCGCUGAUAAGCUGCCUUCUGCGGGGCUUGCCUUCUGGCCAUGCCCUUCUUCUCUCCCUUGCACCUGUACCUCUUGGUCUUUGAAUAAAGCCUGAGUAGGAAG
modifications: Cap1, 5-methylcytosine, pseudouridine
mice
  protein expression detectable out to: 6 days
mice; 0.005 mg/kg and 0.05 mg/kg
  protein expression detectable out to: 3 days
mice; 0.005 mg/kg, 8 hours
  EPO / G-CSF Serum Concentration: 12,508.3 pg/ml
mice; 0.005 mg/kg, 24 hours
  EPO / G-CSF Serum Concentration: 6,803.0 pg/ml
mice; 0.05 mg/kg, 8 hours
  EPO / G-CSF Serum Concentration: 92,139.9 pg/ml
mice; 0.05 mg/kg, 24 hours
  EPO / G-CSF Serum Concentration: 54,389.4 pg/ml
mice; 0.5 mg/kg, 8 hours
  EPO / G-CSF Serum Concentration: 498,515.3 pg/ml
mice; 0.5 mg/kg, 24 hours
  EPO / G-CSF Serum Concentration: 160,566.3 pg/ml
mice; 0.5 mg/kg, 72 hours
  EPO / G-CSF Serum Concentration: 3,492.5 pg/ml
mice; 0.5 mg/kg, 6 days
  EPO / G-CSF Serum Concentration: 21.2 pg/mL
[1]; 0.005 mg/kg IV, 8 hours
  Female NHP Serum G-CSF / EPO Concentration: 523 pg/mL
  Male NHP Serum G-CSF / EPO Concentration: 250 pg/mL
[1]; 0.005 mg/kg IV, 24 hours
  Female NHP Serum G-CSF / EPO Concentration: 302 pg/mL
  Male NHP Serum G-CSF / EPO Concentration: 113 pg/mL
[1]; 0.005 mg/kg IV, 48 hours
  Female NHP Serum G-CSF / EPO Concentration: 11 pg/mL
  Male NHP Serum G-CSF / EPO Concentration: 29 pg/mL
[1]; 0.005 mg/kg IV, 72 hours
  Female NHP Serum G-CSF / EPO Concentration: <7.8 pg/mL
  Male NHP Serum G-CSF / EPO Concentration: <7.8 pg/mL
[1]; 0.005 mg/kg IV, 7 days
  Female NHP Serum G-CSF / EPO Concentration: <7.8 pg/mL
  Male NHP Serum G-CSF / EPO Concentration: <7.8 pg/mL
[1]; 0.005 mg/kg IV, Pre-bleed
  Female NHP Serum G-CSF / EPO Concentration: <7.8 pg/mL
  Male NHP Serum G-CSF / EPO Concentration: <7.8 pg/mL
[1]; 0.05 mg/kg IV, 8 hours
  Female NHP Serum G-CSF / EPO Concentration: 19,858 pg/ml
  Male NHP Serum G-CSF / EPO Concentration: 7,072 pg/ml
[1]; 0.05 mg/kg IV, 24 hours
  Female NHP Serum G-CSF / EPO Concentration: 18,187 pg/ml
  Male NHP Serum G-CSF / EPO Concentration: 4,913 pg/ml
[1]; 0.05 mg/kg IV, 48 hours
  Female NHP Serum G-CSF / EPO Concentration: 5,291 pg/ml
  Male NHP Serum G-CSF / EPO Concentration: 498 pg/mL
[1]; 0.05 mg/kg IV, 72 hours
  Female NHP Serum G-CSF / EPO Concentration: 744 pg/mL
  Male NHP Serum G-CSF / EPO Concentration: 60 pg/mL
[1]; 0.05 mg/kg IV, 7 days
  Female NHP Serum G-CSF / EPO Concentration: <7.8 pg/mL
  Male NHP Serum G-CSF / EPO Concentration: <7.8 pg/mL
[1]; 0.05 mg/kg IV, Pre-bleed
  Female NHP Serum G-CSF / EPO Concentration: <7.8 pg/mL
  Male NHP Serum G-CSF / EPO Concentration: <7.8 pg/mL
[1]; 0.5 mg/kg IV, 8 hours
  Female NHP Serum G-CSF / EPO Concentration: 158,771 pg/ml
  Male NHP Serum G-CSF / EPO Concentration: 119,086 pg/ml
[1]; 0.5 mg/kg IV, 24 hours
  Female NHP Serum G-CSF / EPO Concentration: 133,978 pg/ml
  Male NHP Serum G-CSF / EPO Concentration: 85,825 pg/ml
[1]; 0.5 mg/kg IV, 48 hours
  Female NHP Serum G-CSF / EPO Concentration: 45,250 pg/ml
  Male NHP Serum G-CSF / EPO Concentration: 64,793 pg/ml
[1]; 0.5 mg/kg IV, 72 hours
  Female NHP Serum G-CSF / EPO Concentration: 15,097 pg/ml
  Male NHP Serum G-CSF / EPO Concentration: 20,407 pg/ml
[1]; 0.5 mg/kg IV, 7 days
  Female NHP Serum G-CSF / EPO Concentration: <7.8 pg/mL
  Male NHP Serum G-CSF / EPO Concentration: <7.8 pg/mL
[1]; 0.5 mg/kg IV, Pre-bleed
  Female NHP Serum G-CSF / EPO Concentration: <7.8 pg/mL
  Male NHP Serum G-CSF / EPO Concentration: <7.8 pg/mL
[1]; NHP IV
  protein expression not detected beyond: ≤ 7 days
[2]; 2 days, Female NHP
  ALT: 48 U/L
  AST: 25 U/L
[2]; 2 days, Male NHP
  ALT: 62 U/L
  AST: 29 U/L
[2]; 4 days, Female NHP
  ALT: 50 U/L
  AST: 55 U/L
[2]; 4 days, Male NHP
  ALT: 48 U/L
  AST: 43 U/L
[2]; 7 days, Female NHP
  ALT: 48 U/L
  AST: 31 U/L
[2]; 7 days, Male NHP
  ALT: 21 U/L
  AST: 55 U/L
